Columns and labels:
[1] = target: HLA-DR(α1*0101,α4*0101) (human); assay: competition assay on purified HLA; tracer E2/E168
[2] = target: DR13=HLA-DR(α1*0101,α1*1301) (human); assay: HLA class II competition binding assay, biotinylated tracer peptide
[3] = target: DR1=HLA-DR(α1*0101,α1*0101) (human); assay: as above
[4] = target: DRB4=HLA-DR(α1*0101,α4*0101) (human); assay: as above
[5] = target: DP401=HLA-DP(α1*0101,α1*0401) (human); assay: as above
[6] = target: DRB3=HLA-DR(α1*0101,α3*0101) (human); assay: as above
[7] = target: DR7=HLA-DR(α1*0101,α1*0701) (human); assay: as above
[8] = target: DR11=HLA-DR(α1*0101,α1*1101) (human); assay: as above
[9] = target: DR3=HLA-DR(α1*0101,α1*0301) (human); assay: as above
[10] = target: DRB5=HLA-DR(α1*0101,α5*0101) (human); assay: as above
[11] = target: DR15=HLA-DR(α1*0101,α1*1501) (human); assay: as above
[12] = target: HLA-DR(α1*0101,α1*0701) (human); assay: competition assay on purified HLA; tracer YKL
[13] = target: HLA-DR(α1*0101,α1*1501) (human); assay: competition assay on purified HLA; tracer A3 (152-166)
[14] = target: HLA-DR(α1*0101,α5*0101) (human); assay: competition assay on purified HLA; tracer HA (307-319)
[15] = target: HLA-DR(α1*0101,α1*0101) (human); assay: as above
[16] = target: HLA-DR(α1*0101,α1*1101) (human); assay: as above
[17] = target: HLA-DR(α1*0101,α1*0301) (human); assay: competition assay on purified HLA; tracer MT (2-16)
[18] = target: HLA-DR(α1*0101,α3*0101) (human); assay: competition assay on purified HLA; tracer LOL (191-210)
[19] = target: HLA-DP(α1*0101,α1*0401) (human); assay: competition assay on purified HLA; tracer bOxy 271-287
[20] = target: HLA-DR(α1*0101,α1*1301) (human); assay: competition assay on purified HLA; tracer B1 (21-36)
[21] = target: DP402=HLA-DR(α1*0101,α1*0402) (human); assay: HLA class II competition binding assay, biotinylated tracer peptide
[22] = target: DR4=HLA-DR(α1*0101,α1*0401) (human); assay: as above
[23] = target: HLA-DR(α1*0101,α1*0401) (human); assay: competition assay on purified HLA; tracer HA (307-319)
[24] = target: DP (α1*0101, α1*0402) (human); assay: competition assay on purified HLA; tracer bOxy 271-287

Row | Substance | IC50 [1] | IC50 [2] | IC50 [3] | IC50 [4] | IC50 [5] | IC50 [6] | IC50 [7] | IC50 [9] | IC50 [10] | IC50 [11] | IC50 [12] | IC50 [13] | IC50 [14] | IC50 [15] | IC50 [17] | IC50 [18] | IC50 [19] | IC50 [20] | also measured
1 | HSV1 1 (gB809-840) (peptide) | 43 nM | 284 nM | 6 nM | 43 nM | 1610 nM | > 100000 nM | 296 nM | 995 nM | 6 nM | 3 nM | 296 nM | 3 nM | 6 nM | 6 nM | 995 nM | > 100000 nM | 1610 nM | 284 nM | IC50 [8]: 13 nM; IC50 [16]: 13 nM
2 | HSV1 2 (gB401-433) (peptide) |  | > 100000 nM | < 1 nM |  |  | > 100000 nM | 1 nM | > 100000 nM |  | 60 nM | 1 nM | 60 nM |  | < 1 nM | > 100000 nM | > 100000 nM |  | > 100000 nM | 
3 | HSV1 3 (gB111-140) (peptide) |  |  |  |  | 60 nM |  |  |  |  |  |  | 30 nM |  |  |  |  | 80 nM | 500 nM | 
4 | HSV1 4 (gB424-445) (peptide) |  |  | 30 nM |  |  | > 100000 nM |  | > 100000 nM |  |  |  |  |  | 30 nM | > 100000 nM | > 100000 nM |  |  | 
5 | HSV1 5 (gB173-204) (peptide) | 90000 nM |  |  | 90000 nM |  |  |  |  |  |  |  |  |  |  |  |  |  |  | 
6 | HSV1 6 (gB243-282) (peptide) |  |  | 1 nM |  |  |  |  | 4000 nM | 9 nM | 1 nM |  | 1 nM | 9 nM | 1 nM | 4000 nM |  |  |  | 
7 | HSV1 7 (gB631-661) (peptide) |  | > 100000 nM |  |  |  |  |  | > 100000 nM |  | 60 nM |  | 60 nM |  |  | > 100000 nM |  |  | > 100000 nM | 
8 | HSV1 8 (gB765-799) (peptide) | 232 nM | 314 nM | 2 nM | 232 nM | 107 nM | 55000 nM | 20 nM | 4780 nM | 2 nM | 3 nM | 20 nM | 3 nM | 2 nM | 2 nM | 4780 nM | 55000 nM | 107 nM | 314 nM | IC50 [8]: 4 nM; IC50 [16]: 4 nM
9 | HSV1 9 (gB837-870) (peptide) | 16000 nM | 362 nM | 493 nM | 16000 nM | 8000 nM | 58000 nM | 229 nM | 11400 nM | 559 nM | 2430 nM | 229 nM | 2430 nM | 559 nM | 493 nM | 11400 nM | 58000 nM | 8000 nM | 362 nM | IC50 [21]: 4000 nM; IC50 [22]: 4000 nM; IC50 [23]: 4000 nM; IC50 [24]: 4000 nM
10 | HSV1 10 (gB80-106) (peptide) |  |  |  |  |  | > 100000 nM |  |  |  |  |  |  |  |  |  | > 100000 nM |  |  | 
11 | HSV1 11 (gB453-483) (peptide) |  | > 100000 nM |  |  |  | > 100000 nM | 30 nM | > 100000 nM |  |  | 30 nM |  |  |  | > 100000 nM | > 100000 nM |  | > 100000 nM | 
